These results are taken from publication doi:10.1101/2025.08.19.670962 (2025).

First the molecules themselves.
B1: JIP3-GFP [not stated] / TMEM55B (in HEK293 wild type cells, Figure 4) [not stated] (parent complex)
chain 1: MMEIQMDEGGGVVVYQDDYCSGSVMSERVSGLAGSIYREFERLIHCYDEEVVKELMPLVVNVLENLDSVLSENQEHEVELELLREDNEQLLTQYEREKALRRQAEEKFIEFEDALEQEKKELQIQVEHYEFQTRQLELKAKNYADQISRLEERESEMKKEYNALHQRHTEMIQTYVEHIERSKMQQVGGNSQTESSLPGRRKERPTSLNVFPLADGTVRAQIGGKLVPAGDHWHLSDLGQLQSSSSYQCPQDEMSESGQSSAAATPSTTGTKSNTPTSSVPSAAVTPLNESLQPLGDYGVGSKNSKRAREKRDSRNMEVQVTQEMRNVSIGMGSSDEWSDVQDIIDSTPELDMCPETRLDRTGSSPTQGIVNKAFGINTDSLYHELSTAGSEVIGDVDEGADLLGEFSVRDDFFGMGKEVGNLLLENSQLLETKNALNVVKNDLIAKVDQLSGEQEVLRGELEAAKQAKVKLENRIKELEEELKRVKSEAIIARREPKEEAEDVSSYLCTESDKIPMAQRRRFTRVEMARVLMERNQYKERLMELQEAVRWTEMIRASREHPSVQEKKKSTIWQFFSRLFSSSSSPPPAKRPYPSVNIHYKSPTTAGFSQRRNHAMCPISAGSRPLEFFPDDDCTSSARREQKREQYRQVREHVRNDDGRLQACGWSLPAKYKQLSPNGGQEDTRMKNVPVPVYCRPLVEKDPTMKLWCAAGVNLSGWRPNEDDAGNGVKPAPGRDPLTCDREGDGEPKSAHTSPEKKKAKELPEMDATSSRVWILTSTLTTSKVVIIDANQPGTVVDQFTVCNAHVLCISSIPAASDSDYPPGEMFLDSDVNPEDPGADGVLAGITLVGCATRCNVPRSNCSSRGDTPVLDKGQGEVATIANGKVNPSQSTEEATEATEVPDPGPSEPETATLRPGPLTEHVFTDPAPTPSSGPQPGSENGPEPDSSSTRPEPEPSGDPTGAGSSAAPTMWLGAQNGWLYVHSAVANWKKCLHSIKLKDSVLSLVHVKGRVLVALADGTLAIFHRGEDGQWDLSNYHLMDLGHPHHSIRCMAVVYDRVWCGYKNKVHVIQPKTMQIEKSFDAHPRRESQVRQLAWIGDGVWVSIRLDSTLRLYHAHTHQHLQDVDIEPYVSKMLGTGKLGFSFVRITALLVAGSRLWVGTGNGVVISIPLTETVVLHRGQLLGLRANKTSPTSGEGARPGGIIHVYGDDSSDRAASSFIPYCSMAQAQLCFHGHRDAVKFFVSVPGNVLATLNGSVLDSPAEGPGPAAPASEVEGQKLRNVLVLSGGEGYIDFRIGDGEDDETEEGAGDMSQVKPVLSKAERSHIIVWQVSYTPE
chain 2: not shown

In the test the parent is B1. Description: co-immunoprecipitation (GFP IP, quantitative immunoblot); HEK293 wild type cells, lysed 24h post transfection; parent: 31; read off a plot. On the technique in general: A western blot detects proteins with antibodies after separation by electrophoresis.
Take chain 1 A895L, chain 1 E897K: the response was ~10 TMEM55B/GFP.
